Laboratory results: US5308529A, “System for enhancing release of acids from anhydride precursors using esterase catalysts” (Lever Brothers Company, Division of Conopco, Inc., priority 1992, dated 1994)
Each block holds one molecule with its values, some of them ahead of it.

Assays:
Format in all cases: biochemical
[1] = Enzymatic hydrolysis of benzoic anhydride at pH 5.00 and 10.0 (HPLC); settings: 0.5 mM benzoic anhydride, 50% acetonitrile/water, room temperature, background hydrolysis subtracted
Method: A 50% acetronitrile/water system was used in the presence of 120 ppm water hardness solution (2:1 calcium:magnesium), 0.5 mM benzoic anhydride, and 25 ppm acenaphthylene internal standard. The following buffer systems were utilized:
For pH 5.00: 10 mM sodium citrate, adjusted to pH 5.00 with 0.1 citric acid.
For pH 10.0: 10 mM triethanolamine, adjusted to pH 10.0 with 0.1M hydrochloric acid.
All reactions were run on a 10 mL scale at room temperature for a total of 5.00 min. The benzoic anhydride and internal standard were added from a stock solution which was 1.0M benzoic anhydride and […] acenaphthylene in 100% acetonitrile. A total of 5.0 μL of this stock was used (yielding a 1:2000 dilution) to make each reaction 0.5 mM benzoic anhydride and 25 ppm acenaphthylene. Benzoic acid produced was measured by HPLC (high pressure liquid chromatography) using the acenaphthylene internal standard as a reference.

[2] = Rate of benzoic acid formation from benzoic anhydride by enzymes with esterase activity (HPLC); settings: 50 μM benzoic anhydride, -10 deg. C., pH 7, 5 mins, 60% glycerol/water
Method: Standard reaction conditions for the rate determinations in Table 1 are as follows: 60% glycerol/water (w/w), 120 ppm hardness (2:1 Ca:Mg), 10 mM Triethanolamine adjusted to pH 7 with HCl, and […] benzoic anhydride. All incubations were at -10 deg. centigrade for 5 mins. Benzoic acid produced was measured by HPLC via an internal standard (acenaphthylene).
Various enzymes with esterase activity (lipases, esterases, proteases) were tested against benzoic anhydride to determine the rate of formation of acid. As a control, the effect on benzoic anhydride when no esterase was present (i.e., heat killed lipolase) was also measured.

[3] = Enzymatic hydrolysis of phthalic anhydride; settings: 5.0 mM phthalic anhydride; 60.77 EU/g enzyme; room temperature, 50% acetonitrile/water
Method: The reaction was carried out at room temperature in a mixed solvent system (50% acetonitrile/water). The buffer and water hardness concentration were identical to that used for the benzoic anhydride systems.

B1: Lipolase: lipase from Humicola lanuginosa gene expressed in Aspergillus oryzae, commercially available from NOVO Industri A/S (protein, UniProt O59952 23-291, looked up)
Lipase: EVSQDLFNQFNLFAQYSAAAYCGKNNDAPAGTNITCTGNACPEVEKADATFLYSFEDSGVGDVTGFLALDNTNKLIVLSFRGSRSIENWIGNLNFDLKEINDICSGCRGHDGFTSSWRSVADTLRQKVEDAVREHPDYRVVFTGHSLGGALATVAGADLRGNGYDIDVFSYGAPRVGNRAFAEFLTVQTGGTLYRITHTNDIVPRLPPREFGYSHSSPEYWIKSGTLVPVTRNDIVKIEGIDATGGNNQPNIPDIPAHLWYFGLIGTCL
Reaction over 5.00 min. ([1]; pH 5.00, 50.0 EU/g. enzyme): 33.30%
Reaction over 5.00 min. ([1]; pH 10.0, 15.0 EU/g. enzyme): 86.06%

B2: Heat Killed Lipolase: control: heat killed lipolase, i.e. no esterase present (protein, UniProt O59952 23-291, looked up)
Lipase: EVSQDLFNQFNLFAQYSAAAYCGKNNDAPAGTNITCTGNACPEVEKADATFLYSFEDSGVGDVTGFLALDNTNKLIVLSFRGSRSIENWIGNLNFDLKEINDICSGCRGHDGFTSSWRSVADTLRQKVEDAVREHPDYRVVFTGHSLGGALATVAGADLRGNGYDIDVFSYGAPRVGNRAFAEFLTVQTGGTLYRITHTNDIVPRLPPREFGYSHSSPEYWIKSGTLVPVTRNDIVKIEGIDATGGNNQPNIPDIPAHLWYFGLIGTCL
modifications: heat-inactivated
notes: control: heat killed lipolase, i.e. no esterase present
Rate (uMol Benzoic Acid prod./enzyme unit/min) ([2]; control, no unit assay printed): 0 uMol Benzoic Acid prod./enzyme

B4: Genex 8397: protease; mutant of subtilisin BPN' with MET50→PHE, ASN76→ASP, GLY169→ALA, GLN206→CYS, ASN218→SER (protein, UniProt P00782 108-382, looked up, variant M50F N76D G169A Q206C N218S)
Subtilisin BPN': AQSVPYGVSQIKAPALHSQGYTGSNVKVAVIDSGIDSSHPDLKVAGGASFVPSETNPFQDNNSHGTHVAGTVAALDNSIGVLGVAPSASLYAVKVLGADGSGQYSWIINGIEWAIANNMDVINMSLGGPSGSAALKAAVDKAVASGVVVVAAAGNEGTSGSSSTVGYPAKYPSVIAVGAVDSSNQRASFSSVGPELDVMAPGVSICSTLPGNKYGAYSGTSMASPHVAGAAALILSKHPNWTNTQVRSSLENTTTKLGDSFYYGKGLINVQAAAQ
Reaction over 5.00 min. ([1]; pH 5.00, 60.0 EU/g. enzyme): 22.34%
Reaction over 5.00 min. ([1]; pH 10.0, 3.04 EU/g. enzyme): 63.23%
Rate (μmol BA/EU/min) [3]: 3.03 × 10^-3 μmol BA/EU/min

Next, values leading:

Rate (uMol Benzoic Acid prod./enzyme unit/min) ([2]; enzyme unit = lipase unit): 1.08 E-1 uMol Benzoic Acid prod./enzyme
B3: Humicola languinosa: lipase ex Humicola lanuginosa (listed under Lipases) (protein, UniProt O59952 23-291, looked up)
Lipase: EVSQDLFNQFNLFAQYSAAAYCGKNNDAPAGTNITCTGNACPEVEKADATFLYSFEDSGVGDVTGFLALDNTNKLIVLSFRGSRSIENWIGNLNFDLKEINDICSGCRGHDGFTSSWRSVADTLRQKVEDAVREHPDYRVVFTGHSLGGALATVAGADLRGNGYDIDVFSYGAPRVGNRAFAEFLTVQTGGTLYRITHTNDIVPRLPPREFGYSHSSPEYWIKSGTLVPVTRNDIVKIEGIDATGGNNQPNIPDIPAHLWYFGLIGTCL

Rate (uMol Benzoic Acid prod./enzyme unit/min) ([2]; enzyme unit = esterase unit): 6.2 E-3 uMol Benzoic Acid prod./enzyme
B5: Papain: enzyme listed under Proteases in Table 1 (protein, UniProt P00784 134-345, looked up)
Papain: IPEYVDWRQKGAVTPVKNQGSCGSCWAFSAVVTIEGIIKIRTGNLNEYSEQELLDCDRRSYGCNGGYPWSALQLVAQYGIHYRNTYPYEGVQRYCRSREKGPYAAKTDGVRQVQPYNEGALLYSIANQPVSVVLEAAGKDFQLYRGGIFVGPCGNKVDHAVAAVGYGPNYILIKNSWGTGWGENGYIRIKRGTGNSYGVCGLYTSSFYPVKN
